These are literature values, as cited in paper PMC9636575.

In general, Kd refers to the free concentration of one partner at which half of the binding sites on the other are occupied at equilibrium, for simple one-to-one binding.

The target in the data set is MqsA 1-76 (Escherichia coli) (UniProt Q46864).
Sequence of MqsA 1-76 (Escherichia coli) (Q46864 1-76): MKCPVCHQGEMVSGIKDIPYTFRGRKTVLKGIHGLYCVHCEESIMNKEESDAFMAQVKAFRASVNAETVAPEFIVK

Sequence of MqsR (Q46865 whole entry): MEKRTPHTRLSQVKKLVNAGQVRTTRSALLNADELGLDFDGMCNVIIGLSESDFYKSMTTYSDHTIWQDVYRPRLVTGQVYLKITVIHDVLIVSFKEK

With MqsR (from UniProt Q46865), the Kd was less than 1 nM.
